Among the data in PMC9561264, “Direct hOGG1-Myc interactions inhibit hOGG1 catalytic activity and recruit Myc to its promoters under oxidative stress” are Kd values, retold here.

What all share (settings): protein: recombinant; tags: N-terminal His6 (removed by protease where required); label: 5' AF647 (FP) or Cy3 (EMSA) on bottom strand; blunt
In general terms: Mobility shift assays separate free from complexed probe on a gel.

For data set [1], the target named is T1, hOGG1 wild type (human, UniProt O15527 1-345). Put plainly: fluorescence polarisation; reducing; FP at 25°C with 5 nM labelled DNA; EMSA room temp 30 min, 15% native PAGE 0.5x TBE 4°C; interaction buffer 20 mM Tris-HCl pH 7.6, 200 mM NaCl (Fig. S12); reducing (5 mM DTT in EMSA) or oxidising (pre-oxidised hOGG1). For orientation: In fluorescence polarisation assays a small probe gives low polarisation when free and higher when bound to something large.

Data set [2] has as its target T1, hOGG1 wild type. Put plainly: fluorescence polarisation; oxidising, pre-oxidised hOGG1; FP at 25°C with 5 nM labelled DNA; EMSA room temp 30 min, 15% native PAGE 0.5x TBE 4°C; interaction buffer 20 mM Tris-HCl pH 7.6, 200 mM NaCl (Fig. S12); reducing (5 mM DTT in EMSA) or oxidising (pre-oxidised hOGG1).
Data set [3] deals with T1, hOGG1 wild type. The data set can be described thus: fluorescence polarisation; oxidising; FP at 25°C with 5 nM labelled DNA; EMSA room temp 30 min, 15% native PAGE 0.5x TBE 4°C; interaction buffer 20 mM Tris-HCl pH 7.6, 200 mM NaCl (Fig. S12); reducing (5 mM DTT in EMSA) or oxidising (pre-oxidised hOGG1).

T1 sequence (O15527 whole entry): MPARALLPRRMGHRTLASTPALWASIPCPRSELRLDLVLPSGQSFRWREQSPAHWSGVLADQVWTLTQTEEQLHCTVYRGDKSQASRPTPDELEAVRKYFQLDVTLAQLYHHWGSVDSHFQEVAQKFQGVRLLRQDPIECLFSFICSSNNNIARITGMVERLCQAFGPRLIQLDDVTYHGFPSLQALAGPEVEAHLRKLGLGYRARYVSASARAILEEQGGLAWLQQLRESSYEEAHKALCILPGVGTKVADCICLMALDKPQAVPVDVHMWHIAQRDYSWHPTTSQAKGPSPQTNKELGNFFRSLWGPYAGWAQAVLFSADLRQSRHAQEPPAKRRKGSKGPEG

B1: oxoG 48 bp (EMSA/FP) (dsDNA)
DNA 1: GCATGCCTCGAGTCTAGAGGTACCAGATCTGATCCTCTAGAGTCGACC
DNA 2: GGTCGACTCTAGAGGATCAGATCTGGTACCTCTAGACTCGAGGCATGC
modifications: 8-oxoguanine at position 10 of strand 1 (written G)
In general, Kd refers to the concentration at which binding is half-saturated. As for B1, the Kd in data set [1] was found to be 66 ± 5 nM; in data set [2] it was 140 ± 9 nM.

B2: undamaged (nsp) 48 bp (dsDNA)
DNA 1: B1 DNA 1
DNA 2: B1 DNA 2
Take B2: the Kd turned out to be 252 ± 43 nM in data set [1] and 250 ± 18 nM in data set [3].
